Source: the supplement of paper PMC7877785
± gives the uncertainty stated by the source.

Assay: self-splicing fitness, log relative to wild type (ln ratio); higher = more splicing; Tetrahymena group I intron in knt gene, E. coli kanamycin selection, DiMSum; sequences stand for … in CUCUCU…GGAGGGAAAAGUUAUCAGGCAUGCACCUGGUAGCUAGUCUUUAAACCAAUAGAUUGCAUCGGUUUAAAAGGCAAGACCGUCAAAUUGCGGGAAAGGGGUCAACAGCCGUUCAGUACCAAGUCUCAGGGGAAACUUUGAGAUGGCCUUGCAAAGGGUAUGGUAAUAAGCUGACGGACAUGGUCCUAACCACGCAGCCAAGUCCUAAGUCAACAGAUCUUCUGUUGAUAUGGAUGCAGUUCACAGACUAAAUGUCGGUCGGGGAAGAUGUAUUCUUCUCAUAAGAUAUAGUCGGACCUCUCCUUAAUGGGAGCUAGCGGAUGAAGUGAUGCAACACUGGAGCCGCUGGGAACUAAUUUGUAUGCGAAAGUAUAUUGAUUAGUUUUGGAGUACUCGUGGUCG
Method in brief: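 A randomised library covering all eight P1ex-region intron nucleotides was built with the intron in the knt kanamycin-resistance gene on pET-22b(+) and held in E. coli BL21(DE3). Cells were grown overnight at 37°C or 30°C on LB agar, with or without 25 μg/mL kanamycin, plus 100 μg/mL carbenicillin, 50 μM IPTG and 0.2% rhamnose, and pooled colonies were amplicon-sequenced on an Illumina HiSeq 2500. DiMSum fitness is the error-weighted combination of wild-type-normalised replicate fold changes, kanamycin versus none.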

Question: Which “self-splicing fitness (ln)” value (30 °C) does the source give for GCUGAGCAAUAUUACGGACU here?
Answer: -2.6 ± 0.36

Question: What about the “self-splicing fitness (ln)” value (37 °C) of the same sequence?
Answer: -1.36 ± 0.24

Question: Which results are given for CAGAAGCAAUAUUACGACCG?
Answer: self-splicing fitness (ln) (30 °C): 0.169 ± 0.12; self-splicing fitness (ln) (37 °C): 0.634 ± 0.15

Question: What does the source list for CCCAAGCAAUAUUACGUGCC?
Answer: self-splicing fitness (ln) (30 °C): -4.01 ± 0.29; self-splicing fitness (ln) (37 °C): -2.97 ± 0.34

Question: Which “self-splicing fitness (ln)” value (30 °C) does the source give for AUUAAGCAAUAUUACGGAUG here?
Answer: -2.15 ± 0.14

Question: What about the “self-splicing fitness (ln)” value (37 °C) of the same sequence?
Answer: -2.02 ± 0.22

Question: For CAGUAGCAAUAUUACGCUAA, which “self-splicing fitness (ln)” value (30 °C) is on record?
Answer: -2.26 ± 0.5

Question: And the “self-splicing fitness (ln)” value (37 °C)?
Answer: -2.38 ± 0.32

Question: With CGUAAGCAAUAUUACGCGGU as the sequence, how does the “self-splicing fitness (ln)” value (30 °C) read?
Answer: -1.99 ± 0.23

Question: What about the “self-splicing fitness (ln)” value (37 °C) of the same sequence?
Answer: -1.69 ± 0.38

Question: For GGCGAGCAAUAUUACGAUGG, which “self-splicing fitness (ln)” value (30 °C) is on record?
Answer: -2.32 ± 0.24

Question: For CUAUAGCAAUAUUACGGGGU, which “self-splicing fitness (ln)” value (30 °C) is on record?
Answer: -4.1 ± 0.2

Question: And the “self-splicing fitness (ln)” value (37 °C)?
Answer: -2.83 ± 0.28

Question: What does the source list for CCGGAGCAAUAUUACGUGUG?
Answer: self-splicing fitness (ln) (30 °C): -1.68 ± 0.039; self-splicing fitness (ln) (37 °C): -1.05 ± 0.061

Question: With GGCCAGCAAUAUUACGAAUA as the sequence, how does the “self-splicing fitness (ln)” value (30 °C) read?
Answer: -3.4 ± 0.36

Question: What about the “self-splicing fitness (ln)” value (37 °C) of the same sequence?
Answer: -2.71 ± 0.23

Question: With CUGAAGCAAUAUUACGUCGC as the sequence, how does the “self-splicing fitness (ln)” value (30 °C) read?
Answer: -3.18 ± 0.16

Question: What about the “self-splicing fitness (ln)” value (37 °C) of the same sequence?
Answer: -1.55 ± 0.22

Question: For GUAAAGCAAUAUUACGUCAA, which “self-splicing fitness (ln)” value (30 °C) is on record?
Answer: -1.56 ± 0.098

Question: What about the “self-splicing fitness (ln)” value (37 °C) of the same sequence?
Answer: -0.85 ± 0.097

Question: With AGAUAGCAAUAUUACGAGGA as the sequence, how does the “self-splicing fitness (ln)” value (30 °C) read?
Answer: -2.21 ± 0.21

Question: What about the “self-splicing fitness (ln)” value (37 °C) of the same sequence?
Answer: -2.65 ± 0.48

Question: For CACUAGCAAUAUUACGUUUC, which “self-splicing fitness (ln)” value (30 °C) is on record?
Answer: -4.29 ± 0.3

Question: And the “self-splicing fitness (ln)” value (37 °C)?
Answer: -1.98 ± 0.29

Question: With UGAUAGCAAUAUUACGAAAA as the sequence, how does the “self-splicing fitness (ln)” value (30 °C) read?
Answer: -1.85 ± 0.31

Question: And the “self-splicing fitness (ln)” value (37 °C)?
Answer: -2.48 ± 0.4

Question: Which results are given for ACUAAGCAAUAUUACGAGGA?
Answer: self-splicing fitness (ln) (30 °C): -2.34 ± 0.23; self-splicing fitness (ln) (37 °C): -2.13 ± 0.2

Question: Which “self-splicing fitness (ln)” value (30 °C) does the source give for ACUUAGCAAUAUUACGUUUA here?
Answer: -1.5 ± 0.17

Question: And the “self-splicing fitness (ln)” value (37 °C)?
Answer: -1.07 ± 0.18

Question: For AACCAGCAAUAUUACGCGAG, which “self-splicing fitness (ln)” value (30 °C) is on record?
Answer: -1.21 ± 0.063

Question: What about the “self-splicing fitness (ln)” value (37 °C) of the same sequence?
Answer: -0.492 ± 0.072

Question: What does the source list for CUGUAGCAAUAUUACGCUCG?
Answer: self-splicing fitness (ln) (30 °C): -1 ± 0.18; self-splicing fitness (ln) (37 °C): -0.773 ± 0.25

Question: For UCAUAGCAAUAUUACGGAGU, which “self-splicing fitness (ln)” value (30 °C) is on record?
Answer: -3.88 ± 0.34

Question: And the “self-splicing fitness (ln)” value (37 °C)?
Answer: -2.86 ± 0.25

Question: With CCCCAGCAAUAUUACGGGCA as the sequence, how does the “self-splicing fitness (ln)” value (30 °C) read?
Answer: -2.57 ± 0.13

Question: What about the “self-splicing fitness (ln)” value (37 °C) of the same sequence?
Answer: -1.45 ± 0.11

Question: For ACGAAGCAAUAUUACGAUCU, which “self-splicing fitness (ln)” value (30 °C) is on record?
Answer: -0.659 ± 0.081

Question: What about the “self-splicing fitness (ln)” value (37 °C) of the same sequence?
Answer: -0.244 ± 0.082

Question: For GCAAAGCAAUAUUACGGGAG, which “self-splicing fitness (ln)” value (30 °C) is on record?
Answer: -2.71 ± 0.11

Question: And the “self-splicing fitness (ln)” value (37 °C)?
Answer: -2.08 ± 0.13

Question: Which results are given for UUGAAGCAAUAUUACGCCAU?
Answer: self-splicing fitness (ln) (30 °C): -1.71 ± 0.086; self-splicing fitness (ln) (37 °C): -1.56 ± 0.12

Question: Which results are given for CAUAAGCAAUAUUACGGCGC?
Answer: self-splicing fitness (ln) (30 °C): -2.68 ± 0.42; self-splicing fitness (ln) (37 °C): -3.17 ± 0.35

Question: With CGGGAGCAAUAUUACGAGCC as the sequence, how does the “self-splicing fitness (ln)” value (30 °C) read?
Answer: -0.749 ± 0.46

Question: With AUGUAGCAAUAUUACGGAGC as the sequence, how does the “self-splicing fitness (ln)” value (30 °C) read?
Answer: -4.16 ± 0.16

Question: And the “self-splicing fitness (ln)” value (37 °C)?
Answer: -3.02 ± 0.15

Question: What does the source list for CCUUAGCAAUAUUACGCUCA?
Answer: self-splicing fitness (ln) (30 °C): -3 ± 0.21; self-splicing fitness (ln) (37 °C): -1.94 ± 0.3

Question: With CAGCAGCAAUAUUACGAGCG as the sequence, how does the “self-splicing fitness (ln)” value (30 °C) read?
Answer: -0.131 ± 0.053

Question: And the “self-splicing fitness (ln)” value (37 °C)?
Answer: -0.0622 ± 0.066

Question: Which results are given for ACUAAGCAAUAUUACGAGUU?
Answer: self-splicing fitness (ln) (30 °C): -3.56 ± 0.15; self-splicing fitness (ln) (37 °C): -3.42 ± 0.25

Question: For CUGGAGCAAUAUUACGGGCA, which “self-splicing fitness (ln)” value (30 °C) is on record?
Answer: -1.06 ± 0.38

Question: Which “self-splicing fitness (ln)” value (30 °C) does the source give for GGCAAGCAAUAUUACGAUCG here?
Answer: -0.12 ± 0.054

Question: What about the “self-splicing fitness (ln)” value (37 °C) of the same sequence?
Answer: -0.459 ± 0.066

Question: Which “self-splicing fitness (ln)” value (30 °C) does the source give for UCUUAGCAAUAUUACGGCCA here?
Answer: -2.31 ± 0.38

Question: For CGCUAGCAAUAUUACGUCCA, which “self-splicing fitness (ln)” value (30 °C) is on record?
Answer: -1.49 ± 0.27

Question: And the “self-splicing fitness (ln)” value (37 °C)?
Answer: -1.04 ± 0.29
